{"source": "patent US6613506B1", "about": "“Compositions and methods for inhibiting human immunodeficiency virus infection by down-regulating human cellular genes” (Subsidiary No. 3, Inc., priority 2000, dated 2003)", "molecules": {"B1": {"name": "CF-004: GSE, SEQ ID NO:7, sense; human 2-oxoglutarate dehydrogenase gene (nucleic acid, listed as Homo sapiens)", "sense": "GCGCAAAGCACGCGACATGGTGGGGCAGGTGGCCATCACAAGGATTGAGCAGCTGTCGCCATTCCCCTTTGACCTCCTGCTGAAGGAGGTGCAGAAGTACCCCAA"}, "B2": {"name": "CF-317: GSE, SEQ ID NO:17, antisense; human phosphatidylinositol 3-kinase gene (nucleic acid, listed as Homo sapiens)", "antisense": "CCAAGCTTCCTATCTTAAGCTGGGCGTTGATATCCAGGTCACAACTATAGATGTAGTGAAACTTCTCTGCTTCCCCCATCGCACCGTCTGCAAAGGTACCACC"}, "B3": {"name": "CF-313: GSE, SEQ ID NO:13, sense; human protein tyrosine phosphatase gene (nucleic acid, listed as Homo sapiens)", "sense": "CATTTTGTTACATAAGGATGACTTTTTTATACAATGGAATAAATTATGGCATTTCTATTGAAATTTCAACGCTTTTGTTTCTTTGGCAACCACAC"}, "B4": {"name": "CF-273: GSE, SEQ ID NO:11, sense; eukaryotic translation initiation factor 3 gene (nucleic acid, listed as Homo sapiens)", "sense": "GCTCGTCAGTGTCCACCCCTCCTCGCAACTCCAGGCGCTCCTTTTTCTGCTCCATATAGAGCTCCTGGGCCATTTTCCGGTACTTCCGGAAATCTTCCATCATGGTGCGCCTTC"}, "B5": {"name": "CF-545: GSE, SEQ ID NO:49, antisense; U-snRNP associated cyclophilin gene (nucleic acid, listed as Homo sapiens)", "antisense": "CTTCTTGGTGGTGTTCTTGAGTAAGATAATCTGGACTGGCCCCCGTCTTTGCTTCCCTGCCTGCTGCTGCCCCATTTGATCAAGAGACCATGGAAGTGTCAGAGATTCAGAATCCAAGATTGTCTTTAAGTTTTCAACTGTAAATAAAGTTTTTTTGTATGCGTAAAAAAAGCTCGTGCCT"}, "B6": {"name": "CF-286: GSE, SEQ ID NO:18, sense; human elongation factor-1α gene (nucleic acid, listed as Homo sapiens)", "sense": "CAGTTGGGGTGGGTGTCATCAAAGCAGTGGACAAGAAGGCTGCTGGAGCTGGCAAGGTCACCAAGTCTGCCCAGAAAGCTCAGAAGGCTAAATGAATATTATCCCTAATACCTGCCACCCCACTCTTAATCAGTGGTGGAAGAAC"}, "B7": {"name": "CF-210: GSE, SEQ ID NO:14, sense; herpesvirus-associated ubiquitin-specific protease gene (nucleic acid, listed as Homo sapiens)", "sense": "GCATTACAAAGAGTGTTCTATGAATTACAGCATAGTGATAAACCTGTAGGAACAAAAAAGTTAACAAAGTCATTTGGGTGGGAAACTTTAGATAGCTTCATGCAACATGATGTT"}, "B8": {"name": "CF-266: GSE, SEQ ID NO:15, antisense; human eIF4B gene (nucleic acid, listed as Homo sapiens)", "antisense": "GCCGTTCTTCTACTTCTCTTTCTCAAGCAGCAGTGTCAACAGGCTTTGCCCCTCCAAAGATAGAAGCAGCTCGAGTGGACTGGGAGGTACTAGCAGA"}, "B9": {"name": "CF-529: GSE, SEQ ID NO:45, antisense; importin beta subunit gene (nucleic acid, listed as Homo sapiens)", "antisense": "GGAGTGTGCACGGATGCTGAATGTTTGGGAATGAGAGGATGAGTGAGTGAGGCTTGAAAACACACCACATTGAAAATCCTGCCACAGCAGCAGCCGCAGCCGCCAACAGCAGCGCTGTTAGTGAGCTAAGTAAGC"}, "B10": {"name": "CF-531: GSE, SEQ ID NO:47, antisense; cell adhesion molecule L1 gene (nucleic acid, listed as Homo sapiens)", "antisense": "CTGGGTCCCCAAGGAGGGCCAGTGCAACTTCAGGTTCCATATCTTGTTCAAAGCCTTGGGAGAAGAGAAGGGTGGGGCTTCCCTTTCGC", "modifications": "chemistry not fully specified", "notes": "cell adhesion molecule L1 gene"}, "B11": {"name": "CF-280: GSE, SEQ ID NO:20; portion of an unknown human cellular gene (nucleic acid, listed as Homo sapiens)", "DNA": "GTGCCGTATGAATATACAAAATAATGGCATCAGGGATCCCTGTGCTCATTCACATAGCTAGGGACAACAGGATTTCATCTCCAGGAAACTCAGTAGTATACTTTTGTGACTTCTCTCTTTAAGCACCAAAGCATACTTTCAGGGAAAAACAAAAAAGAGATTAAAAATGTAAAGAATTCTTTCATGCTGCTTGGAGAGGTGAGGGAAGGTAGCCCACTGAAAGTGACAGAGAA"}, "B12": {"name": "CF-302: GSE, SEQ ID NO:16, antisense; human CD44 gene (nucleic acid, listed as Homo sapiens)", "antisense": "GATCCCTGGGCGCGGGGCAGGGGCCGGCGGAGGACGGGACGAGGATGGCGGACCGAACCTGGCAGAGGCTGGG"}, "B13": {"name": "CF-311: GSE, SEQ ID NO:12, antisense; human protein tyrosine phosphatase gene (nucleic acid, listed as Homo sapiens)", "antisense": "GGGGGCTCTGTTTGGTGGTCTCTCTAGCTGCACTGGTCTATCAAGCTGTTGGCTGGTCTCTCTCTCTGGCTGGGGATC"}, "B14": {"name": "CF-204: GSE, SEQ ID NO:9, antisense; human calnexin gene (nucleic acid, listed as Homo sapiens)", "antisense": "GGTTGTCAATCACAGGTCGCCAGGAGACACCACATCCAGGAGCTGACTCACATCTAGGGTTGGCAATCTGAGGAGCCTCCCATTCTCCATCCATGTCTTCATCCCAA"}}, "tested_on": "HIV-1IIIB", "assay": "Selection of GSEs from HeLa cell library using productive infection of CEM-ss cells", "format": "cell-based", "procedure": "Additionally, a normalized RFE library made from HeLa cells was transferred into CEM-ss cells and the neo resistant population was infected with TCID50 of 3000/10^6 cells of HIV-1IIIB. This RFE library was represented by 50×10^6 independent recombinant clones. Four and seven days after infection, a purified anti-CD4 monoclonal antibody, L77 (available from Becton Dickinson), was added at 5 Φg/mL to prevent syncytia formation. Syncytia formation is thought to be prevented by blocking the interaction between gp120 expressed on the surface of an infected cell and CD4 on the surface of an uninfected cell. […] At 10-12 days after infection, CD4^+, p24^− cell population representing uninfected cells were sorted. Genomic DNA from the CD4^+, p24^− cells was purified and used for PCR amplification of inserts with the vector-derived primers. The amplified mixture was digested with EcoRI and BamHI and cloned back into the retroviral vector. The selection was repeated for additional rounds.\nThe selection of GSEs from HeLa cell library using productive infection of CEM-ss cells isolated […] additional nucleic acid molecules which have substantial sequence identity with other cellular genes.\nThe selection of GSEs from a HeLa cell library using productive infection of CEM-ss cells isolated 21 additional nucleic acid molecules which have substantial sequence identity with other cellular genes. […] The complement of SEQ ID NO:25 is represented by SEQ ID NO:26. […] The complement of SEQ ID NO:27 is represented by SEQ ID NO:28. […] The complement of SEQ ID NO:29 is represented by SEQ ID NO:30. […] The complement of SEQ ID NO:31 is represented by SEQ ID NO:32. […] The complement of SEQ ID NO:33 is represented by SEQ ID NO:34. […] The complement of SEQ ID NO:35 is represented by SEQ ID NO:36. […] The complement of SEQ ID NO:37 is represented by SEQ ID NO:38. […] The complement of SEQ ID NO:39 is represented by SEQ ID NO:40. […] The complement of SEQ ID NO:41 is represented by SEQ ID NO:42. […] The complement of SEQ ID NO:43 is represented by SEQ ID NO:44. […] The complement of SEQ ID NO:45 is represented by SEQ ID NO:46. […] The complement of SEQ ID NO:47 is represented by SEQ ID NO:48. […] The complement of SEQ ID NO:49 is represented by SEQ ID NO:50. […] The complement of SEQ ID NO:51 is represented by SEQ ID NO:52. […] The complement of SEQ ID NO:53 is represented by SEQ ID NO:54. […] The complement of SEQ ID NO:55 is represented by SEQ ID NO:56. […] The complement of SEQ ID NO:57 is represented by SEQ ID NO:58. […] The complement of SEQ ID NO:59 is represented by SEQ ID NO:60. […] The complement of SEQ ID NO:61 is represented by SEQ ID NO:62. […] The complement of SEQ ID NO:77 is represented by SEQ ID NO:78. […] The complement of SEQ ID NO:87 is represented by SEQ ID NO:88. […] The complement of SEQ ID NO:99 is represented by SEQ ID NO:100. […] The complement of SEQ ID NO:101 is represented by SEQ ID NO:102. […] The complement of SEQ ID NO:103 is represented by SEQ ID NO:104. […] The complement of SEQ ID NO:105 is represented by SEQ ID NO: 106. […] The complement of SEQ ID NO:107 is represented by SEQ ID NO:108. […] The complement of SEQ ID NO:109 is represented by SEQ ID NO:110. […] The complement of SEQ ID NO:111 is represented by SEQ ID NO:112. […] The complement of SEQ ID NO:113 is represented by SEQ ID NO:114. […] The complement of SEQ ID NO:115 is represented by SEQ ID NO:116. […] The complement of SEQ ID NO:117 is represented by SEQ ID NO:118.", "data": [{"molecule": "CF-332: GSE, SEQ ID NO:33, antisense; lymphocyte-specific protein 1 gene (antisense AACACCCATAGTAGGCCTAAAAGCAGCCACCAATTAAGAAAGC; listed as Homo sapiens)", "values": [{"measurement": "HIV-suppressive activity of the GSE and active orientation", "result": "interferes with HIV replication as an antisense molecule"}]}, {"molecule": "CF-537: GSE, SEQ ID NO:25, sense; human bone morphogenic protein-1 gene (sense GGTCCACCATGGCCCTGCTGCACTCCGGCCGCGTCCTCCCCGGGATCGCCGCCGCCT; chemistry not fully specified; listed as Homo sapiens)", "values": [{"measurement": "HIV-suppressive activity of the GSE and active orientation", "result": "interferes with the HIV life cycles in the sense orientation"}]}, {"molecule": "CF-321: GSE, SEQ ID NO:29, sense; rat guanine nucleotide releasing protein gene (sense AGTTCCTTTTACTTTTTAATCTTTCCTTAAAGCACGCCTGTGTTGGGCTAACGA; listed as Homo sapiens)", "values": [{"measurement": "HIV-suppressive activity of the GSE and active orientation", "result": "interferes with HIV replication in the sense orientation"}]}, {"molecule": "CF-528: GSE, SEQ ID NO:43, sense; GTP binding protein gene (sense AGTGCTTTAACGATGTCACAGCTATCATTTACGTCGCAGCCTGCAGTAGCTACAACATG; chemistry not fully specified; listed as Homo sapiens)", "values": [{"measurement": "HIV-suppressive activity of the GSE and active orientation", "result": "interferes with HIV infection in the sense orientation"}]}, {"molecule": "B1", "values": [{"measurement": "HIV-suppressive activity of the GSE and active orientation", "result": "suppresses HIV infection as a sense molecule"}]}, {"molecule": "B2", "values": [{"measurement": "HIV-suppressive activity of the GSE and active orientation", "result": "suppresses HIV infection as an antisense molecule"}]}, {"molecule": "B3", "values": [{"measurement": "HIV-suppressive activity of the GSE and active orientation", "result": "suppresses HIV infection as a sense molecule"}]}, {"molecule": "B4", "values": [{"measurement": "HIV-suppressive activity of the GSE and active orientation", "result": "suppresses HIV infection as a sense molecule"}]}, {"molecule": "B5", "values": [{"measurement": "HIV-suppressive activity of the GSE and active orientation", "result": "interferes with HIV replication as an antisense molecule"}]}, {"molecule": "B6", "values": [{"measurement": "HIV-suppressive activity of the GSE and active orientation", "result": "suppresses HIV infection as a sense molecule"}]}, {"molecule": "B7", "values": [{"measurement": "HIV-suppressive activity of the GSE and active orientation", "result": "suppresses HIV infection as a sense molecule"}]}, {"molecule": "B8", "values": [{"measurement": "HIV-suppressive activity of the GSE and active orientation", "result": "suppresses HIV infection as an antisense molecule"}]}, {"molecule": "B9", "values": [{"measurement": "HIV-suppressive activity of the GSE and active orientation", "result": "interferes with HIV replication as an antisense molecule"}]}, {"molecule": "B10", "values": [{"measurement": "HIV-suppressive activity of the GSE and active orientation", "result": "interferes with HIV replication as an antisense molecule"}]}, {"molecule": "B11", "values": [{"measurement": "HIV-suppressive activity of the GSE and active orientation", "result": "selected in CEM-ss cells"}]}, {"molecule": "B12", "values": [{"measurement": "HIV-suppressive activity of the GSE and active orientation", "result": "suppresses HIV infection as an antisense molecule"}]}, {"molecule": "B13", "values": [{"measurement": "HIV-suppressive activity of the GSE and active orientation", "result": "suppresses HIV infection as an antisense molecule"}]}, {"molecule": "B14", "values": [{"measurement": "HIV-suppressive activity of the GSE and active orientation", "result": "suppresses HIV infection as an antisense molecule"}]}]}
